Reference: IntAct's records for PubMed 25531777

B1: Rho-related GTP-binding protein Rho6 (Homo sapiens), Q92730 (parent)
chain: MKERRAPQPVVARCKLVLVGDVQCGKTAMLQVLAKDCYPETYVPTVFENYTACLETEEQRVELSLWDTSGSPYYDNVRPLCYSDSDAVLLCFDISRPETVDSALKKWRTEILDYCPSTRVLLIGCKTDLRTDLSTLMELSHQKQAPISYEQGCAIAKQLGAEIYLEGSAFTSEKSIHSIFRTASMLCLNKPSPLPQKSPVRSLSKRLLHLPSRSELISSTFKKEKAKSCSIM

Variants of: B1
Conditions: with PLXNB1, O43157-1
Chain of PLXNB1, O43157-1 (O43157 whole entry): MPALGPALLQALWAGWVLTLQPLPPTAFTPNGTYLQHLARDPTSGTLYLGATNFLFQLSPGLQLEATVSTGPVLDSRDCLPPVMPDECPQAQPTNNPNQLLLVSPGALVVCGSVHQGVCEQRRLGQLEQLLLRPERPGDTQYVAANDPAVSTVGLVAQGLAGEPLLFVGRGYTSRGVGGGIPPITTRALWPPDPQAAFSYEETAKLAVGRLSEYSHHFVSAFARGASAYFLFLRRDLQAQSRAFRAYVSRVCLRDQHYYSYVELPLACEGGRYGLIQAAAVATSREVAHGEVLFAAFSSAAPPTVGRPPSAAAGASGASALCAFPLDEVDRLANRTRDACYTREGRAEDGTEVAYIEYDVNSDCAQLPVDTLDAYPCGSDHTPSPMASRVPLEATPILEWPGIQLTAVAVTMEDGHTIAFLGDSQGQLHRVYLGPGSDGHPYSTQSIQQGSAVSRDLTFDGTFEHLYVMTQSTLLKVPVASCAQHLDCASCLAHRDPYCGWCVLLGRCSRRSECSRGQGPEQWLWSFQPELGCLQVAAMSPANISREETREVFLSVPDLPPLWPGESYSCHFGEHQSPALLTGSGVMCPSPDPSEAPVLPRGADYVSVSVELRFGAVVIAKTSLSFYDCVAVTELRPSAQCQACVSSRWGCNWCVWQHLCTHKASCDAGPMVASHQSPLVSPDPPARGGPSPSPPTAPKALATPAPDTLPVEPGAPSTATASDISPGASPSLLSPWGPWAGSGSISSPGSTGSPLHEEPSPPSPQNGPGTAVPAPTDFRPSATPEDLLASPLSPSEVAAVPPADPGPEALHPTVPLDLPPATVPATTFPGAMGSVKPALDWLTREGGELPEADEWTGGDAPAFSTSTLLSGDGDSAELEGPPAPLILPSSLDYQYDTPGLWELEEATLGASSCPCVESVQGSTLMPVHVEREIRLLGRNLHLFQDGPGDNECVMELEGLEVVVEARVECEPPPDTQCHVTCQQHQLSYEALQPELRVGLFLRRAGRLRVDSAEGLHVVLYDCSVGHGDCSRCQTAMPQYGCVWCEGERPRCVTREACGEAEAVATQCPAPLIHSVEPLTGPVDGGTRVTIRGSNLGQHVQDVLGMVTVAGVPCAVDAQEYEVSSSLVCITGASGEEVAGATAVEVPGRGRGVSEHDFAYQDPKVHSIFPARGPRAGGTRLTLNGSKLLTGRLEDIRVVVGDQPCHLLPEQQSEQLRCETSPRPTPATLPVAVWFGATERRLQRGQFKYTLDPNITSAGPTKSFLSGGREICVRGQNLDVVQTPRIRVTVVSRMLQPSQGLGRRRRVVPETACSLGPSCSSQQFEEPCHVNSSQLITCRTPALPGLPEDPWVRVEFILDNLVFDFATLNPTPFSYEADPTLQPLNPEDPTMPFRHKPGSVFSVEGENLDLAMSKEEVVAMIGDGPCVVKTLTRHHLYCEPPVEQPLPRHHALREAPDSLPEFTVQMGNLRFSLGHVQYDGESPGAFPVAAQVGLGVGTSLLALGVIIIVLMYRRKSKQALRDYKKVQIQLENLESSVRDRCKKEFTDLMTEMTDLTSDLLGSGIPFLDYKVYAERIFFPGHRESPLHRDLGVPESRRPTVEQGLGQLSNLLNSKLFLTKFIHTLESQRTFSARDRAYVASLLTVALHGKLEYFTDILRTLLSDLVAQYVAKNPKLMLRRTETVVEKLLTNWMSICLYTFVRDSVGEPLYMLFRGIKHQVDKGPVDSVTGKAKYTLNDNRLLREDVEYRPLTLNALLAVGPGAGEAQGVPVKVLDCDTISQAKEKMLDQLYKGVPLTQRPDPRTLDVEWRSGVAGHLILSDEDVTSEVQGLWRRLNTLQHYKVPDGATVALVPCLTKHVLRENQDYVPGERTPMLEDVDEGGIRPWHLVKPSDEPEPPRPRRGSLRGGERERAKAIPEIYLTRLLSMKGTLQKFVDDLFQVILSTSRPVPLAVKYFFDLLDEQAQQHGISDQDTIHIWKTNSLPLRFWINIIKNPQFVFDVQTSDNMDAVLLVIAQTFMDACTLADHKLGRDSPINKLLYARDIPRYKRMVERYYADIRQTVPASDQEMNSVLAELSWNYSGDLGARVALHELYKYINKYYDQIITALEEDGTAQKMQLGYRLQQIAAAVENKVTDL

effect of a mutation on the interaction	Variant
disrupting interaction strength	E98D
disrupting interaction strength	F180C
disrupting interaction strength	G70R

Variants of: B1
Conditions: with PLXNB1, O43157-1
Remark: another data set of the same source

effect of a mutation on the interaction	Variant
disrupting interaction strength	E48A
disrupting interaction strength	T45A
